Data as given in the nanobody polyreactivity screen of Harvey et al. (2022).

experiment: yeast display, Sf9 membrane polyspecificity reagent, FACS + sequencing; frameworks hold sequencing errors
How it was run: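 A synthetic nanobody library was expressed on Saccharomyces cerevisiae BJ5465 by galactose induction for 36–48 hours. The library was stained for 1 hour at 4 °C with 10% biotinylated, detergent-solubilized Sf9 membrane reagent and enriched with streptavidin microbeads before FACS. Low and high (top ~1%) gates were set on anti-HA fluorescence for expression and streptavidin fluorescence for reagent binding, and each polyreactivity label reflects the gate of origin.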

| Sequence | polyreactivity (PSR sort gate) |
| --- | --- |
| QGQLVESGGGLVQAGGSLRLSCAASGSMFYRYAMGWYRQAPGKERELVAVITSAGGTHYADSVKGRFTISRDNAKNTVYLQMTSLKPEDTAVDYCARRGYYYDYWGEGTQVTVSS | high polyreactivity |
| QGQLVESGGGLVQAGGSLRLSCAASGSTFAYYAMGWYIPAPGKERELVAAITSRGGSTYYADSVKGRFTISRDNAKNTVYLQMNSLKPEDTAVYYCAAVTRNQGSYRYYYWGQGTQVTVSS | high polyreactivity |
| QGQLVESGGGLVQAGGSLRLSCAASGSTFAYYAMGWYRQAPGKERELVAAINTTTGSTFYADSVKGRFTISRDNAKNTVYLQMNSLKPEDTAGYYCAAGVTGPSDDYDYWGQGTQVTVSS | low polyreactivity |
| QGQLVESGGGLVQAGGSLRLSCAASGSTFPPYRMGWYRQAPGKERELVAAITWRGGRTYYADSVKGRFTISRDNAKNTVYLQMNSLKREDTAVYYCAADYPYQYGRYAGSPGAGRYYWGQGTQVTVSS | high polyreactivity |
| QGQLVESGGGLVQAGGSLRLSCAPSGFIFKFYAMGWYRQAPGKESELVAAITSSGGSTNYADSVKGRFTISRDNAKNTVYLQMISLKPEDTAVSYCAAQFPGVYYYIYDYWGQGTQVTVSS | high polyreactivity |
| QGQLVESGGGLVQAGGSLRLSCAPTGRTFAHYARGWYRQAHWTERELVAGITRRAGSTYYADSVKGRFTISRDNAKHSVYLHMNSLKPEETEVYYCAAPRDWDAGDYWGQGTQVTVSS | high polyreactivity |
| QGQLVESGGGLVQAGGSLRLSSAASGSTFVGNAMGWYRQAPGKEREMVATISNSGGRTYYADSVKGRFTISRDNAKNTVYLQMTSLKPEDTAVYDCAADHPAFGPGYSFDYWGQGTQVTLSS | low polyreactivity |
| QGQLVESGGGLVQAGGSLRLTCAASGFIFDNYAMGWYRHAPGKERELVADISWGGGSTYYADSVKGRFTISRDNAKNTVYLQMNSLTPEDTAVYYCDAQYSYRMDYWGQGTQVTVSS | low polyreactivity |
| QGQLVESGGGLVQAGGSLRLTCAASGITFDDYAMGWYRQAPGKERELVAAISWSGDITYYADSVKGRFTSSRDNATNTVYLQMNSLKPEDTAVYYCAADLSPYGYDYWGQGTQVTVSS | low polyreactivity |
| QGQLVESGGGLVQAGGSLRLTCAASGRIFKWYAMGWYIQETGKERELVAAISSAGSTYYADSVKGRFTISRDNAKNTVYLQLNSLKPEDTAVYYCAARKYTFRRKSRYGYWGQGTQVTVSS | high polyreactivity |
| QGQLVESGGGLVQARGSLRLSCAAYGRTFYGNVMGWYRQAPGNERELDATISVSSGSTYYADSVKGRFTISRDTEKNTVYLLMNSLKPEDSAVYYCNADDTDYATGGGNYWGQGTQVTVSS | low polyreactivity |
| QGQLVESGGRLVQAGVSLRLSCAASGFIFPKYAMGWYRQAPGKERELVAVITWRSGSTYYADSVKGRFTISRDNAKNTVYLQMNSLKTEETADYYCNARRSSGRYSKMGYWGQGTQVTVSS | high polyreactivity |
| QGQLVESGGVLVQAGGSLRLSCAASGSIIQPYAMGWYRQAPGKERELVAAISRGGTTYYADSVKGRFTISRDNAKNTVYLQMNSLKPEDTAVYYCAVKGYRYGTRYDYWGQGTQVTVSS | high polyreactivity |
| QGQLVESGRGLVQAGGSLRLSCAASGRTFRRYGKGWYRQAPGNERELVAAITSGGGTYYEDSVKGRVTISRDNAKNTVYLQMNSLKPEDTAVYYCAAQRVYKSSPSYDFWGQGTQVTVSS | low polyreactivity |
| QGQLVESGRGLVQAGGSLRLSSAASGSTFFANAMGWYRQAPGKERELVAAIDKRGGRTYYADSVKGRFTISRDNAKNTVYLQMNSLKPEDTAVYYCNAVANYRLKYDYWGQGTQVTVSS | high polyreactivity |
| QGQLVETGGGLVQAGGILRLSCAASGSIFGDYDMGWYRQDPGKERDLVAAITSSGGMTYYADSVKGRFTISRDNAKNTVYFQMNSLKPVDTAVYYCAAYGYGSKYRYTGYYYWGQGTQVTVSS | low polyreactivity |
| QGQRVESGGGLVQAGGSLRLSCAASGSIFTYAMGGSRQAPGNERELGAAISRSGGRTYYADSGKGRFTISRDNAKNTVSLHMNSLKPEDTAVYYCAALLLKDYDYWGPGTQVTVSS | low polyreactivity |
| QHHLVESGGGLVQAGGSLRLSCAASGRPLQGYAMGWYRQAPGKHRELVAAITWSGGSTYYADSVKGRFTISRDKAKNTVYLQMNSLKPEDTAVYYCATDDDSARFDYWGQGTQVTVSS | low polyreactivity |
| QHQLVDSGVCLVQAGRSLRLSCDASGYTFYIYAMGWYTQAPRKERELVATISSSGGGTYYADSVKGRFTISRDNAKNTVYLQMNSLNPEDTAVYYCNADGWYWQAQGYDYWGQGTQVTVSS | low polyreactivity |
| QIQLVESCGGLVQAGGSLRLICDDSGITFTIYAMGGYRQAHGKERELVAAIDSGGGTNYADSVKGRFTISRDNAKNTVYLQMNSLKPEDTAFYYCAAYWYAEGYWVSRDYWGQGTQVTVSS | low polyreactivity |
| QIQLVESVGGLVQAGGSLRLSCAASGSIFQYYAMGWYRQAPGKERELVAAISSGGSTYYADSVKGRFTISRENAKNTVYLQMNSLKPEDTAVYYCAADLQSGYTIPTSIVEYHPFDYWGQGTQGTVSS | low polyreactivity |
| QLHLEESGGGLVQAGGSLRISCAASGSTFGIYAMGSYRQAPGKEREILAAISVGGGRTYYADTVKGRFTISRDNAKNTVLLQMNSLKPEDTAVYYCAVYGFWGLGTQVTVSS | high polyreactivity |
| QLLLQESGRGLVQAGVSLRLSCAASGSIFLVYTIGCYRKAPLKEREFVAGIPLGTTTYNADSVKGRFTISRDNVKNTVYLQINSLKPEDTSVYYCAVAVGHYTDIWDWGQGTQVTMSS | high polyreactivity |
| QLLLVESGGGLVQAGGSLRLSCATSGIILRYYAMGWYRQAPGKERELVAAISGSGTRTYYADSVKGRFTISRDNAKNTVYLQMNSLKPEDTAVYYCAAAHPATRYDYWGQGTQVTVSS | high polyreactivity |
| QLQHEESRGGLVQAGGSLRLSCAASGFIFPAYVMGWYRQAPGKERELVSAIDWSGDNTYYADSVKGRFTISRDNAKNTVYLQMNSLTPEDTAVYYCAKDNDYPTEWLSDYYYWGQGTQVTVSS | low polyreactivity |
| QLQHVESGGGLVQAGGSLRLSCDASGYTFAWYAMGWYIQAPGKESELVAAISVSGGSTYYADSVKGRFTISRDNAKNTVYIQMNSLKPEDTAVYYCAARRYLGYSASYDYWGQGTQVTVSS | high polyreactivity |
| QLQHVESGGGLVQAGGSLRLTCAASGRTFGYYAMGWYRQAPGKERELVAAITSGGRTYYADSVKGRFTISRDNAKNTVYLQMNSLKPEDTAVYYCNAPPRWCSRVAWYEYWGQGTQVTVSS | high polyreactivity |
| QLQLEDSGGGLVQAGGILRLSFAASGFTFFYNAMRWYSQAPATEREFDAAISGRGGTTYYADSVKGRFTISRDNAKNTVYLQMNSVKPEDTAVYYCAARSVSTLRYTSGKLRYDYWGQGTQVTVSS | high polyreactivity |
| QLQLEDSGGGLVQAGGSLRISCAASARIVGGNTMGWYRQAPGKERELVAAITYRGGSTYYADSVKGRFTISRDNAKYTVYLQINSLKPVATAVYYCATAGYWGGDYWGQGTQVTVSS | low polyreactivity |
| QLQLEESAGGLVQAGGSLRLSCAASGLTFPSYVMGRYRPAPGKEREFVAASTGSAGSTYYADSVKGRLTISRDNAKNTVYLQMISLKPEDSAVYYCAARVRYVNPKYYYWGHGTQVTVSS | high polyreactivity |
